Numbering of substitutions follows the chain as printed. Names may count otherwise.
B1: HMW-MAA_IGEG (HMW-MAA IgE IgG-Fc) (antibody)
heavy: not shown
light: DIQLTQSPSFLSASVGDRVTITCKASQNVDTNVAWYQQKPGKAPKPLLFSASYRYTGVPSRFSGSGSGTDFTLTISSLQPEDFATYFCQQYNSYPLTFGGGTKVEIKRTVAAPSVFIFPPSDEQLKSGTASVVCLLNNFYPREAKVQWKVDNALQSGNSQESVTEQDSKDSTYSLSSTLTLSKADYEKHKVYACEVTHQGLSSPVTKSFNRGEC
notes: also called CH IGEG
B2: HMW-MAA_IgE (antibody)
heavy: EVQLVQSGGGLVQPGGSLKLSCAVSGFTFSNYWMNWVRQAPGKGLEWVGEIRLKSNNFGRYYAESVKGRFTISRDDSKNTAYLQMNSLKTEDTAVYYCTSYGNYVGHYFDHWGQGTLVTVSSASTQSPSVFPLTRCCKNIPSNATSVTLGCLATGYFPEPVMVTWDTGSLNGTTMTLPATTLTLSGHYATISLLTVSGAWAKQMFTCRVAHTPSSTDWVDNKTFSVCSRDFTPPTVKILQSSCDGGGHFPPTIQLLCLVSGYTPGTINITWLEDGQVMDVDLSTASTTQEGELASTQSELTLSQKHWLSDRTYTCQVTYQGHTFEDSTKKCADSNPRGVSAYLSRPSPFDLFIRKSPTITCLVVDLAPSKGTVNLTWSRASGKPVNHSTRKEEKQRNGTLTVTSTLPVGTRDWIEGETYQCRVTHPHLPRALMRSTTKTSGPRAAPEVYAFATPEWPGSRDKRTLACLIQNFMPEDISVQWLHNEVQLPDARHSTTQPRKTKGSGFFVFSRLEVTRAEWEQKDEFICRAVHEAASPSQTVQRAVSVNPGK
light: B1 light
notes: also called HMW-MAA IgE-WT; anti-HMW-MAA IgE
B3: HMW-MAA_IGEG-dFcRn (antibody, human IgG1, kappa)
heavy: EVQLVQSGGGLVQPGGSLKLSCAVSGFTFSNYWMNWVRQAPGKGLEWVGEIRLKSNNFGRYYAESVKGRFTISRDDSKNTAYLQMNSLKTEDTAVYYCTSYGNYVGHYFDHWGQGTLVTVSSASTQSPSVFPLTRCCKNIPSNATSVTLGCLATGYFPEPVMVTWDTGSLNGTTMTLPATTLTLSGHYATISLLTVSGAWAKQMFTCRVAHTPSSTDWVDNKTFSVCSRDFTPPTVKILQSSCDGGGHFPPTIQLLCLVSGYTPGTINITWLEDGQVMDVDLSTASTTQEGELASTQSELTLSQKHWLSDRTYTCQVTYQGHTFEDSTKKCADSNPRGVSAYLSRPSPFDLFIRKSPTITCLVVDLAPSKGTVNLTWSRASGKPVNHSTRKEEKQRNGTLTVTSTLPVGTRDWIEGETYQCRVTHPHLPRALMRSTTKTSGPRAAPEVYAFATPEWPGSRDKRTLACLIQNFMPEDISVQWLHNEVQLPDARHSTTQPRKTKGSGFFVFSRLEVTRAEWEQKDEFICRAVHEAASPSQTVQRAVSVNPGKRSEPKSCDKTHTCPPCPAPELLGGPSVFLFPPKPKDTLMASRTPEVTCVVVDVSHEDPEVKFNWYVDGVEVHNAKTKPREEQYNSTYRVVSVLTVLAQDWLNGKEYKCKVSNKALPAPIEKTISKAKGQPREPQVYTLPPSREEMTKNQVSLTCLVKGFYPSDIAVEWESNGQPENNYKTTPPVLDSDGSFFLYSKLTVDKSRWQQGNVFSCSVMHEALHNAYTQKSLSLSPGK
light: B1 light
B4: HMW-MAA_IGEG-C220S-dFcRn (antibody)
heavy: B3 heavy with C557S
light: B1 light
B5: HMW-MAA_IGEG-C220S (HMW-MAA IgE-IgG-Fc C220S) (antibody)
heavy: not shown
light: B1 light

Key:
[1] = target: T1, Human CD64 (FcγRI), His-tagged (human, UniProt P12314 16-288); experiment: SPR single cycle, 1:1 fit, His-tagged receptor captured, antibody as analyte
T1 construct: also called FcgRI; hFcγRI
Description: (§1) FcRs were captured on a CM5 sensor chip pre-coupled using a His capture kit (Cytiva, Uppsala, Sweden) using standard amine chemistry.
(§2) At the start of each cycle His-tagged Fc receptors diluted in HEPES buffered saline containing 0.05% v/v Surfactant P20 (HBS-P+) were loaded to a specified RU level (Table 7). A five point, three-fold dilution range of test antibody without regeneration between each concentration was used for each receptor tested. […] In all cases, antibodies were passed over the chip in increasing concentrations followed by a single dissociation step. Following dissociation, the chip was regenerated with two injections of Glycine pH 1.5. The signal from the reference channel Fc1 (blank) was subtracted from that of the Fc loaded with receptor to correct for differences in non-specific binding to the reference surface.

[2] = target: T2, Human FcεRIα (Fc epsilon RI alpha), His-tagged (human, UniProt P12319 26-205); experiment: as above
T2 construct: also called FceRIa; hFcεR1
T2 sequence (looked up): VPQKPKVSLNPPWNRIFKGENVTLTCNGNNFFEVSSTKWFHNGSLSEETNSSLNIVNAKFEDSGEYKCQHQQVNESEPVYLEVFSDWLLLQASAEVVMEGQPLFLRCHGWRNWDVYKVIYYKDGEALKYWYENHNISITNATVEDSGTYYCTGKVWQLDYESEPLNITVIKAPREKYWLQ
Description: as §1, §2

[3] = target: T3, Human CD16A 176 Phe (FcγRIIIA176Phe), His-tagged (human, UniProt P08637 17-208); experiment: SPR single cycle, steady state fit, His-tagged receptor captured, antibody as analyte
T3 construct: also called hFcγRIIIa 176F
Description: as §1, §2

[4] = target: T4, Human CD16A 176 Val (FcγRIIIA176Val), His-tagged (human, UniProt P08637 17-208); experiment: as above
T4 construct: also called FcγRIIIA (CD16A); hFcγRIIIa 176V
Description: as §1, §2

[5] = target: T5, Human CD16B (FcγRIIIB), His-tagged (human, UniProt O75015 17-200); experiment: as above
T5 construct: also called hFcγRIIIb
Description: as §1, §2

[6] = target: T6, HMW-MAA (high molecular weight-melanoma associated antigen) on A375 cells (UniProt Q6UVK1 30-2322); experiment: flow cytometry on A375 cells, FITC goat anti-human IgG secondary
T6 construct: whole, on cells; also called CSPG4; chondroitin sulfate proteoglycan 4
Protocol: (§3) A375 cells were cultured using standard methods. When A375 cells were confluent, the cells were harvested. In brief, cells were washed with PBS before incubation with TrypLE™ at 37° C. for 10 minutes to detach the cells from the flask. Cells were resuspended in 10 mL of media and centrifuged for 3 minutes at 250 g. Cells were then resuspended in 1 mL FACS buffer and counted on the Cellometer® to determine the cell number and viability. Following this, cells were diluted to 1×10⁶ cells per mL with FACS buffer, and 100 μL of this cell suspension plated per well on a plate.
(§4) Binding of purified IGEGs to A375 cells (ATCC, Virginia, US) was assessed by flow cytometry using a Attune® NxT Acoustic Focusing Cytometer running Attune Software V3.1.2 (ThermoFisher Scientific, Loughborough, UK). […] Cells were washed and resuspended in FACS buffer and then acquired on the Attune® NxT Acoustic Focusing Cytometer. The data was analysed using FlowJo™ Software Version 10 (Becton, Dickinson and Company, New Jersey, US) and GraphPad Prism 8 (GraphPad Software, California, US).

[7] = target: T7, Human FcRn (neonatal Fc receptor) (human, UniProt P55899 24-297; P61769 21-119); experiment: SPR steady state, pH 6.0, FcRn amine-coupled, antibody as analyte; pH 6.0; 31.25 nM to 2000 nM antibody over hFcRn on the chip
T7 construct: also called hFcRn
Protocol: (§5) Antibodies were passed over the chip with increasing concentrations at a flow rate of 30 μl/min and at 25° C. The injection time was 40 s per concentration and the dissociation time was 75 s. […] Interactions were analysed using a steady state model (see FIGS. 19a to 19d for example data).

[8] = target: T4, Human CD16A 176 Val (FcγRIIIA176Val), …; experiment: SPR (Biacore T200) single cycle, His-tagged FcγRIIIA176Val captured on anti-His chip, antibody as analyte, raw sensorgrams
Description: as §1, §2

[9] = target: T7, Human FcRn (neonatal Fc receptor); experiment: SPR (Biacore T200), hFcRn amine-coupled to CM5 chip, antibody as analyte 31.25-2000 nM, pH 6.0, raw sensorgrams
Protocol: as §5

[10] = target: T1, Human CD64 (FcγRI), His-tagged; experiment: SPR (Biacore T200) single cycle kinetics, His-tagged FcγRI captured on anti-His chip, antibody as analyte 0.411-33.33 nM
Description: as §1, §2

[11] = target: T6, HMW-MAA (high molecular weight-melanoma …); experiment: flow cytometry on A375 cells, FITC goat anti-human IgE secondary
Protocol: as §3, §4

[12] = target: T3, Human CD16A 176 Phe (FcγRIIIA176Phe), …; experiment: SPR single cycle, His-tagged receptor captured, antibody as analyte
Description: as §1, §2

[13] = target: T5, Human CD16B (FcγRIIIB), His-tagged; experiment: as above
Description: as §1, §2

[14] = target: T7, Human FcRn (neonatal Fc receptor); experiment: SPR (Biacore T200), hFcRn amine-coupled to CM5 chip, antibody as analyte 31.25-2000 nM, pH 6.0, raw sensorgrams [Continued]
Protocol: as §5

T1 sequence (P12314 16-288 limits assumed): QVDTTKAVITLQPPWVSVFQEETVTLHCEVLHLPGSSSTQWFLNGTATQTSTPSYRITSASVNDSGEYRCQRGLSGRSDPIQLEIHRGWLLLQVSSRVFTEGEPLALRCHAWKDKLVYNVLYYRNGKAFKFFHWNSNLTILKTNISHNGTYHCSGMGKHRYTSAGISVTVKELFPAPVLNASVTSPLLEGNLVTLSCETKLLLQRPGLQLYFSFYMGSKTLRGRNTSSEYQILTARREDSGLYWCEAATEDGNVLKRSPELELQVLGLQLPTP
T6 sequence (Q6UVK1 30-2322): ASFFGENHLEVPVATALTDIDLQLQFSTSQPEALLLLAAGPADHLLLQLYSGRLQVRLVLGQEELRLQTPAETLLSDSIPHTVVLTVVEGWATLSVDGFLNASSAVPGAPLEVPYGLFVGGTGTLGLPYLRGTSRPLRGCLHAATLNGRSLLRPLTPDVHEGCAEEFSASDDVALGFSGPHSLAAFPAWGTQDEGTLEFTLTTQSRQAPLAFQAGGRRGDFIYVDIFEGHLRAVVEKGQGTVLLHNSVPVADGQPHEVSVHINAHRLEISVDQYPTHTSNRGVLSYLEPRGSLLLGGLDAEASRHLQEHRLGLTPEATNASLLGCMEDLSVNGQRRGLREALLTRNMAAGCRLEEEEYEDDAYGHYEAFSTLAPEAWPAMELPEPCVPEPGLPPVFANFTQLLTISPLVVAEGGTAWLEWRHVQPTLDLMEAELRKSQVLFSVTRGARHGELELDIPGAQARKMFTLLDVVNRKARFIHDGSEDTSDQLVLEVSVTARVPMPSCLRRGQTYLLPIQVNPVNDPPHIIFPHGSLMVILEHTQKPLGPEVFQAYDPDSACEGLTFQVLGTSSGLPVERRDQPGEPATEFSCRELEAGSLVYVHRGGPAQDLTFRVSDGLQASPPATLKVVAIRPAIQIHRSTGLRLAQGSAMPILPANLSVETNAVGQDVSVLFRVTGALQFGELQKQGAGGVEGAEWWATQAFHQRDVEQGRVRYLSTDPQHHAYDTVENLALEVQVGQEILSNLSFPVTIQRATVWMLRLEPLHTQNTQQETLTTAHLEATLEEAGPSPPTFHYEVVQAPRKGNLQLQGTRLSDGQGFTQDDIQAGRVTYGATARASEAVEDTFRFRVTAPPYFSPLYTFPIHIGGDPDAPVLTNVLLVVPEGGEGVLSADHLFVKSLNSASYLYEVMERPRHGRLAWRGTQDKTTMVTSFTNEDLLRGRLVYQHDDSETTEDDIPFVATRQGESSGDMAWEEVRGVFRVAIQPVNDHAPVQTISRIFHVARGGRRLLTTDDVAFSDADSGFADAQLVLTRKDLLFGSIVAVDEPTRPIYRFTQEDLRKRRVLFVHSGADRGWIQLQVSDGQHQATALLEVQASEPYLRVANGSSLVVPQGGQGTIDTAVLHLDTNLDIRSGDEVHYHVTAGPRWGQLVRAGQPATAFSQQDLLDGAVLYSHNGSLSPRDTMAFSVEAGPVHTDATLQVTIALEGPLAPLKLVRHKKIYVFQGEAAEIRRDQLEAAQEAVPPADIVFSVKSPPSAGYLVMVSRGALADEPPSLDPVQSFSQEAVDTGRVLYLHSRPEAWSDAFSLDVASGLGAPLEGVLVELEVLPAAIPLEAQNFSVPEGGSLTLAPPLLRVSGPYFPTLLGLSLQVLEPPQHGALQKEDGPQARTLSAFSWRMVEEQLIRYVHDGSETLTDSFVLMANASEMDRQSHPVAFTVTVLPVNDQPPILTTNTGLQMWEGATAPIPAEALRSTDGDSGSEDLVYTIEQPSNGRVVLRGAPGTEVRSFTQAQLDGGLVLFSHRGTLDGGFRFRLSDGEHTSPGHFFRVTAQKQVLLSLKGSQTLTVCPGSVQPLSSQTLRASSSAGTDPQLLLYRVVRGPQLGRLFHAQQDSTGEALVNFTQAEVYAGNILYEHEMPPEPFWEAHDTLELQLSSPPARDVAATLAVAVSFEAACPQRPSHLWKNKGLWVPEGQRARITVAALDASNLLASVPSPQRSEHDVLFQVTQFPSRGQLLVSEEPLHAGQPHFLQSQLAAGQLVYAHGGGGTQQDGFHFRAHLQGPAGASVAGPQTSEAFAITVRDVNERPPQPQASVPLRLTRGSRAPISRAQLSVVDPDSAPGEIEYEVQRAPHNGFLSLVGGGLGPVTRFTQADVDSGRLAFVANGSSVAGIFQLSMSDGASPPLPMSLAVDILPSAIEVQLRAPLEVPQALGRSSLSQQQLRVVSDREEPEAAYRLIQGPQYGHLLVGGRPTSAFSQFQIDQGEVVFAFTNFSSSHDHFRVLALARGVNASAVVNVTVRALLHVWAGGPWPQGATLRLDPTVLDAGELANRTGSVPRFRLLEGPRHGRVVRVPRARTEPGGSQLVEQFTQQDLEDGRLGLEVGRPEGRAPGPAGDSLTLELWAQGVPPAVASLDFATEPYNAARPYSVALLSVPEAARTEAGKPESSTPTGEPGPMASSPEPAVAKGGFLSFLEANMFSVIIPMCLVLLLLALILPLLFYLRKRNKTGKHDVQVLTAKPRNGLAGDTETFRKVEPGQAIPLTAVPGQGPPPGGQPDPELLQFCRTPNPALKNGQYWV
T3 sequence (P08637 17-208 limits assumed): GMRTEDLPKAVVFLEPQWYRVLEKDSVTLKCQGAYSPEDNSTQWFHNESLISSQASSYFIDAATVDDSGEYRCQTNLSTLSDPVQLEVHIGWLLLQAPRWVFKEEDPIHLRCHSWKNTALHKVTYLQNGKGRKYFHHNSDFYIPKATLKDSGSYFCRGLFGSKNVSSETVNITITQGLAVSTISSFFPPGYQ
T4 sequence (P08637 17-208 F176V limits assumed): as the sequence (P08637 17-208 limits assumed) above, with F160V counted along it
T5 sequence (O75015 17-200 limits assumed): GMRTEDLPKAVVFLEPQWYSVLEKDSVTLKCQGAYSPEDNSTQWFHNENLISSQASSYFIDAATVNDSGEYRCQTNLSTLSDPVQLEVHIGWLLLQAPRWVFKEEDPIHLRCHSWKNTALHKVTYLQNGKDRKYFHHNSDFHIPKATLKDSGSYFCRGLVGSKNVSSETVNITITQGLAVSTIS
T7 sequence (P55899 24-297 limits assumed, chain 1 of 2): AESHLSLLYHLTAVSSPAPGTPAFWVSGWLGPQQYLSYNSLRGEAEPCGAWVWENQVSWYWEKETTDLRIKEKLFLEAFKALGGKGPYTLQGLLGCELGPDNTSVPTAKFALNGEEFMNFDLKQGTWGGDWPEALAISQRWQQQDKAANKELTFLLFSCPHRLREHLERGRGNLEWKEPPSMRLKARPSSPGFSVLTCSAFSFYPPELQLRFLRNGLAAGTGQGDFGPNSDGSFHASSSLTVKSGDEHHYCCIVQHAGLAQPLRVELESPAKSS
T7 sequence (P61769 21-119 limits assumed, chain 2 of 2): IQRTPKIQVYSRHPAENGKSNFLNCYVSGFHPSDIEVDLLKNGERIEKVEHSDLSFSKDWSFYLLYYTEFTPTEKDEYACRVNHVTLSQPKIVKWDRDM

Binder	Kd [1] [nM]	Kd [2] [nM]	Kd [3] [nM]	Kd [4] [nM]	Kd [5] [nM]	binding result [6]	Kd [7] [nM]	binding result [8]	binding result [9]	binding result [10]	binding result [11]	binding result [12]	binding result [13]	binding result [14]
B1	1.63	0.599	665	386	1480	binds	1020							
B2		0.508						no binding (tested: 3e-6 M (top point of FIG. 17D))	no binding (tested: 2000 nM)	no binding (tested: 33.33 nM)	binds	no binding (tested: 8000 nM)	no binding (tested: 8000 nM)	
B3	2.02	0.556	960	535	2030	binds								no binding (tested: 2000 nM)
B4	2.18	0.535	1160	601	2780	binds								no binding (tested: 2000 nM)
B5	1.67	0.493	775	400	1870	binds	1050							
